This is an account of results in US20200109398.

The series relates to R4Al (R4_AL) retrotransposase (Ascaris lumbricoides). As to the kind of experiment: cell_activity. The note with it: ddPCR 3' junction, HEK293T, plasmid cis.

Consider human rDNA R4 target site, for which the activity (copies/genome) stood at 0.085.
